Data as given in patent US20200207822A1, “PEPTIDE INHIBITORS OF INTERLEUKIN-23 RECEPTOR AND THEIR USE TO TREAT INFLAMMATORY DISEASES” (Protagonist Therapeutics, Inc., priority 2017, published 2020).
Positions of bridges follow the written chain, without caps; N, C: chain ends. Non-standard residues stand in square brackets, D forms with d. Groups on a side chain read outwards from the residue. 2Nal = N[C@@H](Cc1ccc2ccccc2c1)C(=O)O; AEF = NCCOc1ccc(C[C@H](N)C(=O)O)cc1; αMeL = CC(C)C[C@](C)(N)C(=O)O; Pen = CC(C)(S)[C@H](N)C(=O)O; dAbu = CC[C@@H](N)C(=O)O; Thp = NC1(C(=O)O)CCOCC1; Abu = CC[C@H](N)C(=O)O

B1: SEQ ID NO 195 (peptide)
peptide: XNTWKXXXXKNNG
modifications: Ac-[Pen]-NTW-[Lys(Ac)]-[Pen]-[Phe[4-(2-aminoethoxy)]-[2-Nal]-[α-MeLeu]-[Lys(Ac)]-NNG-NH2
B2: SEQ ID NO 177 (peptide)
peptide: XNTWQXXXXKNNX
modifications: Ac-[Pen]-NTWQ-[Pen]-[Phe[4-(2-aminoethoxy)]-[2-Nal]-[α-MeLeu]-[Lys(Ac)]-NN-[(D)Gln]-NH2
B3: SEQ ID NO 147 (peptide)
peptide: XXQTWQCXXXENN
modifications: Ac-[(D)Arg]-cyclo[[Abu]-QTWQC]-[Phe[4-(2-aminoethoxy)]-[2-Nal]-[3-cyclohexyl-Ala]-ENN-NH2
B4: SEQ ID NO 175 (peptide)
peptide: XNTWQXXXXKNNX
modifications: Ac-[Pen]-NTWQ-[Pen]-[Phe[4-(2-aminoethoxy)]-[2-Nal]-[α-MeLeu]-[Lys(Ac)]-NN-[(D)Ile]-NH2
B5: SEQ ID NO 153 (peptide)
peptide: XXQTWKCXXXENN
modifications: Ac-[(D)Arg]-cyclo[[Abu]-QTW-Lys(isoGlu-Palm)-C]-[Phe[4-(2-aminoethoxy)]-[2-Nal]-[4-amino-4-carboxy-tetrahydropyran]-ENN-NH2
B6: SEQ ID NO 196 (peptide)
peptide: XNTWKXXXXKNNX
modifications: Ac-[Pen]-NTW-[Lys(Ac)]-[Pen]-[Phe[4-(2-aminoethoxy)]-[2-Nal]-[α-MeLeu]-[Lys(Ac)]-NN-[β-Ala]-NH2
B7: SEQ ID NO 198 (peptide)
peptide: XNTWKXXXXKNNX
modifications: Ac-[Pen]-NTW-[Lys(Ac)]-[Pen]-[Phe[4-(2-aminoethoxy)]-[2-Nal]-[α-MeLeu]-[Lys(Ac)]-NN-[Sar]-NH2
B8: SEQ ID NO 197 (peptide)
peptide: XNTWKXXXXKNNX
modifications: Ac-[Pen]-NTW-[Lys(Ac)]-[Pen]-[Phe[4-(2-aminoethoxy)]-[2-Nal]-[α-MeLeu]-[Lys(Ac)]-NN-[Ahx]-NH2
B9: SEQ ID NO 174 (peptide)
peptide: XNTWQXXXXKNNX
modifications: Ac-[Pen]-NTWQ-[Pen]-[Phe[4-(2-aminoethoxy)]-[2-Nal]-[α-MeLeu]-[Lys(Ac)]-NN-[(D)Arg]-NH2
B10: SEQ ID NO 138 (peptide)
peptide: XXQTWQCXXXENN
modifications: Ac-[(D)Arg]-cyclo[[Abu]-QTWQC]-[Phe[4-(2-aminoethoxy)]-[2-Nal]-[α-MeLeu]-ENN-NH2
B11: SEQ ID NO 184 (peptide)
peptide: XNTWQXXXXKNNX
modifications: (Ac-[Pen]-NTWQ-[Pen]-[Phe(4-CONH2)]-[2-Nal]-[α-MeLeu]-[Lys(Ac)]-NN-[(D)Lys]-NH2)2-DIG
B12: SEQ ID NO 170 (peptide)
peptide: XNTWKXXXXKNN
modifications: Ac-[Pen]-NTW-[Lys(Ac)]-[Pen]-[Phe[4-(2-aminoethoxy)]-[2-Nal]-[α-MeLeu]-[Lys(Ac)]-NN-NH2
B13: SEQ ID NO 218 (peptide)
peptide: XNTWKXXXXKNNX
modifications: Ac-[Pen]-NTW-[Lys(Ac)]-[Pen]-[Phe[4-(2-aminoethoxy)]-[2-Nal]-[α-MeLeu]-[Lys(Ac-(D)Asn)]-NN-[(D)Ile]-NH2

Target: T1, interleukin-23 receptor (IL-23R) (human, UniProt Q5VWK5 24-629)
T1 sequence (looked up): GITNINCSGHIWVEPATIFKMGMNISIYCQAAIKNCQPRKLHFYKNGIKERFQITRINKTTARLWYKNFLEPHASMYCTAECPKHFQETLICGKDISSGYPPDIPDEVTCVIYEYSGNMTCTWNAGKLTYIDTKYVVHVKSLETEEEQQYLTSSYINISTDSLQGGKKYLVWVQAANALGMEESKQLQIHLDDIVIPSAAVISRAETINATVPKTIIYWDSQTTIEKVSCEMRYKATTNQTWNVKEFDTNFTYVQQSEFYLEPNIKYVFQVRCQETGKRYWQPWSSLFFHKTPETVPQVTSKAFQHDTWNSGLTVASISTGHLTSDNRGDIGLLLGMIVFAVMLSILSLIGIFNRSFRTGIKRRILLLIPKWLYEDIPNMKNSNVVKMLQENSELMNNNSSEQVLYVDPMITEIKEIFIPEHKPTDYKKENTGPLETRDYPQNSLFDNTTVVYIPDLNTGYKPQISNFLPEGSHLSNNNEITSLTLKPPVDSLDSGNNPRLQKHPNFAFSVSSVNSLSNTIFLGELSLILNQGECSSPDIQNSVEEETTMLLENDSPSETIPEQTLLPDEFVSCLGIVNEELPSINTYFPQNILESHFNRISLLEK
Experiment: cell-based or functional assay
Conditions: not given

| Molecule | IC50, pStat3 HTRF (nM) |
| --- | --- |
| B1 | < 1 nM |
| Ac-K([Ser-Ac])[Pen]NTWK(Ac)[Pen][AEF][2Nal][αMeL]K(Ac)NN-NH2 (disulfide 2-7 (inferred)) [SEQ ID NO 226] | < 1 nM |
| Ac-[dK]([Ser-Ac])[Pen]NTWK(Ac)[Pen][AEF][2Nal][αMeL]K(Ac)NN-NH2 (disulfide 2-7 (inferred)) [SEQ ID NO 233] | < 1 nM |
| Ac-[dK]([Arg-Ac])[Pen]NTWK(Ac)[Pen][AEF][2Nal][αMeL]K(Ac)NN-NH2 (disulfide 2-7 (inferred)) [SEQ ID NO 234] | < 1 nM |
| B2 | < 1 nM |
| B3 | < 1 nM |
| Ac-K([Arg-Ac])[Pen]NTWK(Ac)[Pen][AEF][2Nal][αMeL]K(Ac)NN-NH2 (disulfide 2-7 (inferred)) [SEQ ID NO 227] | < 1 nM |
| Ac-K([Leu-Ac])[Pen]NTWK(Ac)[Pen][AEF][2Nal][αMeL]K(Ac)NN-NH2 (disulfide 2-7 (inferred)) [SEQ ID NO 228] | < 1 nM |
| B4 | < 1 nM |
| B5 | > 100 nM |
| Ac-[dK]([Pro-Ac])[Pen]NTWK(Ac)[Pen][AEF][2Nal][αMeL]K(Ac)NN-NH2 (disulfide 2-7 (inferred)) [SEQ ID NO 236] | < 1 nM |
| XNTWQXXXXKNNY (Ac-[Pen]-NTWQ-[Pen]-[Phe[4-(2-aminoethoxy)]-[2-Nal]-[α-MeLeu]-[Lys(Ac)]-NNY-NH2) [SEQ ID NO 159] | < 1 nM |
| B6 | < 1 nM |
| B7 | < 1 nM |
| Ac-[dK]([Phe-Ac])[Pen]NTWK(Ac)[Pen][AEF][2Nal][αMeL]K(Ac)NN-NH2 (disulfide 2-7 (inferred)) [SEQ ID NO 231] | < 1 nM |
| XNTWQXXXXKNNS (Ac-[Pen]-NTWQ-[Pen]-[Phe[4-(2-aminoethoxy)]-[2-Nal]-[α-MeLeu]-[Lys(Ac)]-NNS-NH2) [SEQ ID NO 165] | < 1 nM |
| B8 | < 1 nM |

| Molecule | IC50, pStat3 HTRF (nM) |
| --- | --- |
| Ac-K([Glu-Ac])[Pen]NTWK(Ac)[Pen][AEF][2Nal][αMeL]K(Ac)NN-NH2 (disulfide 2-7 (inferred)) [SEQ ID NO 223] | < 1 nM |
| Ac-[dK]([Leu-Ac])[Pen]NTWK(Ac)[Pen][AEF][2Nal][αMeL]K(Ac)NN-NH2 (disulfide 2-7 (inferred)) [SEQ ID NO 235] | < 1 nM |
| Ac-[Pen]NTWQ[dAbu][AEF][2Nal][αMeL]K(Ac)NN-NH2 (thioether 1-6) [SEQ ID NO 137] | > 100 nM |
| XXQTWQCXXXENN (Ac-[(D)Arg]-cyclo[[Abu]-QTWQC]-[Phe[4-(2-aminoethoxy)]-[2-Nal]-[Aib]-ENN-NH2) [SEQ ID NO 148] | < 1 nM |
| B9 | < 1 nM |
| B10 | < 1 nM |
| Ac-[dK]([Glu-Ac])[Pen]NTWK(Ac)[Pen][AEF][2Nal][αMeL]K(Ac)NN-NH2 (disulfide 2-7 (inferred)) [SEQ ID NO 230] | < 1 nM |
| B11 | < 1 nM |
| Ac-K([Pro-Ac])[Pen]NTWK(Ac)[Pen][AEF][2Nal][αMeL]K(Ac)NN-NH2 (disulfide 2-7 (inferred)) [SEQ ID NO 229] | < 1 nM |
| Ac-K([Tyr-Ac])[Pen]NTWK(Ac)[Pen][AEF][2Nal][αMeL]K(Ac)NN-NH2 (disulfide 2-7 (inferred)) [SEQ ID NO 225] | < 1 nM |
| B12 | < 1 nM |
| XNTWQXXXXKNNQ (Ac-[Pen]-NTWQ-[Pen]-[Phe[4-(2-aminoethoxy)]-[2-Nal]-[α-MeLeu]-[Lys(Ac)]-NNQ-NH2) [SEQ ID NO 164] | < 1 nM |
| XNTWQXXXXKNNR (Ac-[Pen]-NTWQ-[Pen]-[Phe[4-(2-aminoethoxy)]-[2-Nal]-[α-MeLeu]-[Lys(Ac)]-NNR-NH2) [SEQ ID NO 161] | < 1 nM |
| B13 | < 1 nM |
| Ac-[dK]([Tyr-Ac])[Pen]NTWK(Ac)[Pen][AEF][2Nal][αMeL]K(Ac)NN-NH2 (disulfide 2-7 (inferred)) [SEQ ID NO 232] | < 1 nM |
| Ac-K([Phe-Ac])[Pen]NTWK(Ac)[Pen][AEF][2Nal][αMeL]K(Ac)NN-NH2 (disulfide 2-7 (inferred)) [SEQ ID NO 224] | < 1 nM |

System: IL-23R-expressing DB cells stimulated with IL-23 (pSTAT3 levels)
Experiment: DB cells IL23R pSTAT3 cell assay (Cisbio HTRF pSTAT3)
Type: cell-based, human
Conditions: Table E2, thioether peptides, IL-23 0.5 nM, 30 minutes at 37° C.
Source text: Human ELISA indicates the IL23-IL23R competitive binding assay described below, Rat ELISA indicates the rat IL-23R competitive binding ELISA assay described below, and pStat3HTRF indicates the DB cells IL-23R pSTAT3 cell assay described below. The peptides depicted in Table E1 are cyclized via a disulfide bridge formed between two Pen residues in these peptides. The peptides depicted in Table E2 are cyclized via a thioether bond between the indicated amino acid residues. Table E2 provides an illustrative structure depicting thioether cyclization, which is indicated in the table by the term “cyclo,” with the cyclic region bracketed immediately following the term “cyclo.” For certain peptides, the residue Abu is present where indicated, whereas in other embodiments, e.g., those related to the non-cyclized form, the Abu may be referred to as a hSer(Cl) or homoSer residue.
DB Cells IL23R pSTAT3 Cell Assay
IL-23 plays a central role in supporting and maintaining Th17 differentiation in vivo. […] This cell assay examines the levels of pSTAT3 in IL-23R-expressing DB cells when stimulated with IL-23 in the presence of test compounds.

| Molecule | IC50 |
| --- | --- |
| 79 (Ac-[dR][Abu]ETWQC[AEF][2Nal][Thp]END-NH2; thioether 2-7) [compound 79] | 1 to 10 nM |
| 78 (Ac-[dR][Abu]QTWEC[AEF][2Nal][Thp]END-NH2; thioether 2-7) [compound 78] | 1 to 10 nM |
| 102 (XXQTWTCXXXENN; MOD_RES (1)..(1) D-form arginine; MOD_RES (2)..(2) Abu; (2)..(7) residues cyclosized; MOD_RES (8)..(8) 4-(2-aminoethoxy)-L-phenylalanine; MOD_RES (9)..(9) L-2-Napthylalanine; MOD_RES (10)..(10) 4-amino-4-carboxy-tetrahydropyran) [compound 102] | 10 to 100 nM |
| 81 (Ac-[dR][Abu]ETWQC[AEF][2Nal][Thp]EDN-NH2; thioether 2-7) [compound 81] | 10 to 100 nM |

Same assay, conditions: Table L3 (E3), additional peptide inhibitors, IL-23 0.5 nM, 30 minutes at 37° C.

| Molecule | IC50 |
| --- | --- |
| 179 (Ac-K(Ac)[Pen]NTWQ[Pen][AEF][2Nal][αMeL]K(Ac)NN-NH2; disulfide 2-7 (inferred)) [compound 179] | 1 to 10 nM |
| 162 (XNTWQXXXXKNNL; MOD_RES (1)..(1) L-Penicillamine; MOD_RES (6)..(6) L-Penicillamine; MOD_RES (7)..(7) 4-(2-aminoethoxy)-L-phenylalanine; MOD_RES (8)..(8) L-2-Napthylalanine; MOD_RES (9)..(9) alpha-methyl-L-Leucine; MOD_RES (10)..(10) …ON) [compound 162] | 1 to 10 nM |
| 154 (XXQTWKCXXXENN; MOD_RES (1)..(1) D-form arginine; MOD_RES (2)..(2) Abu; (2)..(7) residues cyclosized; MOD_RES (6)..(6) PEG12 conjugation; MOD_RES (8)..(8) 4-(2-aminoethoxy)-L-phenylalanine; MOD_RES (9)..(9) L-2-Napthylalanine; MOD_RES (10)..(10) 4-amino-4-carboxy-tetrahydropyran) [compound 154] | 1 to 10 nM |
